± gives the uncertainty stated by the source.

The data set is described as follows: amyloid nucleation score (Sup35N fusion, yeast selection) (log enrichment); library NNK3; higher = more nucleation; inactive = no reads after selection. In a few lines: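 On medium lacking adenine and uracil, psi-negative yeast expressing peptides of 20 random codons fused to Sup35N were grown 7 days at 30°C after a 24-hour induction with 100 μM copper sulfate. Illumina sequencing of input and output plasmid inserts gave the reads, and sequences under 100 input reads were excluded. The nucleation score is the DiMSum log enrichment of output over input reads, centred on the mode score of non-aggregating sequences.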
Regarding RGTRTGPRDRTLFMSKAVRS, the amyloid nucleation score amounted to 0.364 ± 0.39.

With RGWYINTVGYRTRAGHNLCG, the amyloid nucleation score result was “inactive”.

With RGYSFCRPSHWWKARCVEGE, the amyloid nucleation score entry is “inactive”.

On to RHAYQRWLIFC, for which the amyloid nucleation score entry was “inactive”.

With RHCWVPGCDRQCKWYFEGTS, the amyloid nucleation score result was “inactive”.

In the case of RHEHREGNGDVPLNV, the amyloid nucleation score entry is “inactive”.

With RHLMYPNRNMMVWSSFSDLG, the amyloid nucleation score result was “inactive”.

For RHLPQESKRSSVAAISLM, the amyloid nucleation score result was “inactive”.

RHSQFTVVFCNRGRCAGLAA: the amyloid nucleation score entry was “inactive”.

Take RHVNEGLVRGFNPSRTLKGK: the amyloid nucleation score entry was “inactive”.

RIDRSYACALSWHVLYVNR had an amyloid nucleation score of 0.436 ± 0.23.

Consider RIGQMFLILVFKGLL, for which the amyloid nucleation score entry is “inactive”.

As to RIIAGWTYRSSQIWYFRDPH, the amyloid nucleation score result was “inactive”.

The substance RIKAYVGLFTVSWGSWGRRR yielded an amyloid nucleation score of 1.44 ± 0.14.

As for RIKLRLFTTHEYCSRDRCSD, the amyloid nucleation score entry was “inactive”.

Take RIKSSTYSMSLVGAQ: the amyloid nucleation score entry is “inactive”.

As to RILCRVRYM, the amyloid nucleation score entry is “inactive”.

As to RINSVQGDGVLNLCPRLRVP, the amyloid nucleation score entry was “inactive”.

For the substance RIPKTKRYHPCYVRLRRSVY, the amyloid nucleation score result is “inactive”.

For the substance RIRVSNVCSHQFWLIYGNDT, the amyloid nucleation score came out at 2.15 ± 0.057.

For RISAFWLYTACQFGSDLDTC, the amyloid nucleation score entry was “inactive”.

Consider RITGALRAFGSRTFCASCVC, for which the amyloid nucleation score result was “inactive”.

The substance RITIMFGSLINDLHFCNA registered an amyloid nucleation score of 2.87 ± 0.052.

As for RIWRPLTFMSLDLMIMWCRH, the amyloid nucleation score entry was “inactive”.

RIYKNRSSSGILLNERFPGL displayed an amyloid nucleation score of -0.46 ± 1.3.

As to RIYTYKRIYRIKVLITWNRL, the amyloid nucleation score entry is “inactive”.

As for RKDLCDFSYLHGDPGAKPEL, the amyloid nucleation score result was “inactive”.

Take RKEVEGGVPALYDDMRIFES: the amyloid nucleation score entry is “inactive”.

Consider RKGLL, for which the amyloid nucleation score result is “inactive”.

For the substance RKGTWPHLGTVNRRVQRWVY, the amyloid nucleation score result is “inactive”.

Take RKHAGLYLQYE: the amyloid nucleation score entry is “inactive”.

Take RKHLDLT: the amyloid nucleation score entry is “inactive”.

Turning to RKLFFEFFFCDSVH, the amyloid nucleation score entry was “inactive”.

Substance RKTSV showed an amyloid nucleation score of -0.071 ± 0.28.

Consider RLAGCYYIP, for which the amyloid nucleation score entry was “inactive”.

Regarding RLASGLNPFYVRG, the amyloid nucleation score entry is “inactive”.

As for RLDGSMSGCFSTFWNWNIVR, the amyloid nucleation score entry was “inactive”.

RLFMGRS: the amyloid nucleation score result was “inactive”.

For RLHRLKDFTRNGCEYSSHLS, the amyloid nucleation score result is “inactive”.

Take RLHTMWTYP: the amyloid nucleation score entry is “inactive”.

The substance RLLLSGSSVAICCGQLGLGF showed an amyloid nucleation score of 2.11 ± 0.097.

In the case of RLLMKV, the amyloid nucleation score entry is “inactive”.

RLLSAV: the amyloid nucleation score result was “inactive”.

Take RLNGRDHL: the amyloid nucleation score result was “inactive”.

Turning to RLQMGVLDLFYFD, the amyloid nucleation score entry is “inactive”.

As to RLRGVGIIVGGASQSSSQLR, the amyloid nucleation score result was “inactive”.

RLRLYFRLTKNFHSMNHW: the amyloid nucleation score result is “inactive”.

Consider RLSGNADYNNWTF, for which the amyloid nucleation score turned out to be 0.436 ± 0.67.

RLSGVIGT: the amyloid nucleation score result is “inactive”.

With RLSRSRKRYFFGFR, the amyloid nucleation score result is “inactive”.

With RLSSLPHCVIM, the amyloid nucleation score entry is “inactive”.

RLSWSQPVLNVSTCEGVN: the amyloid nucleation score entry is “inactive”.

As for RLTVYISQRKKHHCLMERSH, the amyloid nucleation score stood at 0.221 ± 0.33.

As to RLVRSMAFYNHVIYL, the amyloid nucleation score was determined as 0.012 ± 0.28.

Take RLVVVYLGTNSTSKEDISC: the amyloid nucleation score came to 0.332 ± 0.23.

As for RLWLRKT, the amyloid nucleation score result is “inactive”.

Take RLYFYDEKCIGCHGSNSLTQ: the amyloid nucleation score entry was “inactive”.

In the case of RMENWLRCL, the amyloid nucleation score result is “inactive”.

As for RMGLTEMWHVIPSITSRQYL, the amyloid nucleation score result is “inactive”.

Regarding RMGYFSCQVRYSRFLTIPSR, the amyloid nucleation score entry was “inactive”.

As for RMNNLSGEQKQLCDLSLAVR, the amyloid nucleation score entry is “inactive”.

In the case of RMSLNFNSQPRSLVMGNKYS, the amyloid nucleation score entry was “inactive”.

On to RMSLRAELVKVNLEAIPNWT, for which the amyloid nucleation score result was “inactive”.

On to RMSLSGRYRHFWSGRCVCRE, for which the amyloid nucleation score result was “inactive”.

With RMVRIALTL, the amyloid nucleation score entry is “inactive”.

For RMYPHE, the amyloid nucleation score entry was “inactive”.

The substance RMYWAV registered an amyloid nucleation score of 1.02 ± 0.19.

For RNFRRVSSRF, the amyloid nucleation score entry was “inactive”.

For the substance RNGVHS, the amyloid nucleation score amounted to 0.149 ± 0.81.

As for RNIQWRFIP, the amyloid nucleation score entry was “inactive”.

As for RNKVKQTE, the amyloid nucleation score entry is “inactive”.

Turning to RNMGYVTDNYLYTVLYYDCY, the amyloid nucleation score result was “inactive”.

Take RNPWKFAATRFRLLQNPLVE: the amyloid nucleation score was -0.185 ± 0.9.

Regarding RNSFVLWMVSSV, the amyloid nucleation score was -0.01 ± 0.45.

As for RNSSNGSVHKQVFAVELKVP, the amyloid nucleation score entry is “inactive”.

As to RNSSYYLMASVDCVRFH, the amyloid nucleation score entry was “inactive”.

RPCNVMEKRDSTNIVTRFT: the amyloid nucleation score result is “inactive”.

For the substance RPFLSMS, the amyloid nucleation score result was “inactive”.

Turning to RPGVC, the amyloid nucleation score entry is “inactive”.

Consider RPRTRNRRSSISWAKAL, for which the amyloid nucleation score entry is “inactive”.

For the substance RPSCMFCPSHAMARLPPVGS, the amyloid nucleation score entry was “inactive”.

For the substance RQERCGSALPCCCKMIDRRA, the amyloid nucleation score entry was “inactive”.

As to RQGYVADNSTGESDIGDGLG, the amyloid nucleation score result is “inactive”.

For RQLTLSRITNLSLK, the amyloid nucleation score result is “inactive”.

Substance RQYRSLRFSVLVYPSHISKG gave an amyloid nucleation score of 0.544 ± 0.17.

As for RRCMFIFSYWPRRVLATVLK, the amyloid nucleation score result is “inactive”.

On to RRDSDIDRALSLGYASRTTK, for which the amyloid nucleation score result is “inactive”.

In the case of RRIASEWDLTTVPLLLV, the amyloid nucleation score entry was “inactive”.

Consider RRKLTAMVNTGEWMSQDDGS, for which the amyloid nucleation score result was “inactive”.

RRKWHEYSVVMSRTNHMCIW showed an amyloid nucleation score of -0.118 ± 0.58.

As to RRLHSIAFVHRCLIIICCMG, the amyloid nucleation score entry is “inactive”.

Take RRMAETKHGAPMQRVLK: the amyloid nucleation score result is “inactive”.

Turning to RRMLIGFHVFSYYWDNEYTR, the amyloid nucleation score is 0.611 ± 0.14.

Take RRMRFCKTSYEYLCNYAAPK: the amyloid nucleation score entry is “inactive”.

On to RRNMWG, for which the amyloid nucleation score entry was “inactive”.

Take RRRFCVKGSPGVRFVEWTLR: the amyloid nucleation score is -0.696 ± 1.1.

The substance RRTWGSMYTKVLSISFLGPG returned an amyloid nucleation score of 1.48 ± 0.1.

In the case of RRVQKERSLKC, the amyloid nucleation score result is “inactive”.

Regarding RRVSHLFLRTCCPSWTYYHL, the amyloid nucleation score entry is “inactive”.

With RRWTTEVKQVHDYCG, the amyloid nucleation score result is “inactive”.

Regarding RRYGTDRLLMRYSIENFCVL, the amyloid nucleation score entry is “inactive”.

Consider RSAFGIGFPGGYCVLDHYER, for which the amyloid nucleation score entry is “inactive”.

For RSALILAWHCRSMSLQDAEG, the amyloid nucleation score result was “inactive”.

Consider RSERVRNSKLTVCVIYKYIK, for which the amyloid nucleation score result was “inactive”.

Take RSEVRR: the amyloid nucleation score is -0.013 ± 0.51.

Regarding RSEWQMTRNYRVWGCYI, the amyloid nucleation score result was “inactive”.

Consider RSFKWNSECILWVSMLFSM, for which the amyloid nucleation score entry was “inactive”.

As for RSLLGGSKAVYTWDWQPAII, the amyloid nucleation score entry was “inactive”.

For RSLTLKLTGGVLALMRS, the amyloid nucleation score entry was “inactive”.

RSNMHC: the amyloid nucleation score result is “inactive”.

In the case of RSNNGSSERGGDIEDLSPNK, the amyloid nucleation score result is “inactive”.

On to RSQWLFISKKFDLAIYIAV, for which the amyloid nucleation score result was “inactive”.

On to RSRET, for which the amyloid nucleation score entry was “inactive”.

Take RSRILMYYYKISLFYRIKVM: the amyloid nucleation score entry was “inactive”.

RSRRFGYSAAISFTIGNLNS displayed an amyloid nucleation score of 1.28 ± 0.13.

Consider RSRYSSLPLPVV, for which the amyloid nucleation score entry was “inactive”.

Regarding RSSFVWTSRHFVV, the amyloid nucleation score result was “inactive”.

For RSVFCKKFPDKNMVVFGVHL, the amyloid nucleation score result is “inactive”.

With RSVFTTSCH, the amyloid nucleation score result was “inactive”.

Consider RSVVLLAMMSGYRDISIFRT, for which the amyloid nucleation score entry was “inactive”.

RSVVVIYKRCGLYLKS: the amyloid nucleation score entry was “inactive”.

Take RSWSETC: the amyloid nucleation score entry is “inactive”.

Substance RTDFHPLYLILWNQRK returned an amyloid nucleation score of 1.9 ± 0.098.

Turning to RTDYVISNVAMCNSLLC, the amyloid nucleation score was 2.8 ± 0.082.

Take RTISGYSPSIVGQRDSRGFL: the amyloid nucleation score result is “inactive”.

Take RTKKY: the amyloid nucleation score result is “inactive”.

Regarding RTLAVSIRNQWPYIGLARDT, the amyloid nucleation score result is “inactive”.

In the case of RTPPLRTQLESKSIFKEMAR, the amyloid nucleation score entry was “inactive”.

Turning to RTSYNTFGGFYTNGWTLILR, the amyloid nucleation score entry is “inactive”.

As for RTTAK, the amyloid nucleation score result was “inactive”.

The substance RTYLDYGVNALLCPLTWGFS registered an amyloid nucleation score of -0.071 ± 0.73.

For the substance RVACFQIHGK, the amyloid nucleation score entry was “inactive”.

For RVAFSMESTPWSMFTSRTAE, the amyloid nucleation score entry was “inactive”.
